Measured values published in patent US7098013B2, “Polypeptide having α-isomaltosyl-transferase activity” (Kabushiki Kaisha Hayashibara Seibutsu Kagaku Kenkyujo, priority 2000, dated 2006).

Experiments:
[1] = Optimum temperature of the enzyme activity; type: biochemical; conditions: incubated for 30 min, pH 6.0
Description: The activity of α-isomaltosyl-transferring enzyme was measured by the following assay: A substrate solution was prepared by dissolving panose in 100 mM acetate buffer (pH 6.0) to give a concentration of 2% (w/v). A reaction mixture was prepared by mixing 0.5 ml of the substrate solution and 0.5 ml of an enzyme solution, and incubated at 35° C. for 30 min. After stopping the reaction by boiling for 10 min, the amount of glucose formed in the reaction mixture was determined by the glucose oxidase-peroxidase method. One unit of α-isomaltosyl-transferring activity was defined as the amount of the enzyme that forms one μmole of glucose per minute under the above conditions.
A purified specimen of polypeptide having α-isomaltosyl-transferring activity, obtained by the method in Experiment 3-2, was acted on the substrate in 20 mM acetate buffer (pH6.0) at various temperatures for 30 min, according to the assay method of α-isomaltosyl-transferring enzyme disclosed in Experiment 1-1.

[2] = Thermal stability of the polypeptide; type: physicochemical; conditions: 20 mM acetate buffer (pH 6.0), 60 min
Description: A purified specimen of polypeptide having α-isomaltosyl-transferring activity, obtained by the method in Experiment 3-2, was incubated in 20 mM acetate buffer (pH6.0) at various temperatures for 60 min according to the assay method of α-isomaltosyl-transferring enzyme disclosed in Experiment 1-1.

B1: polypeptide having α-isomaltosyl-transferring enzyme activity from Bacillus globisporus C11: purified α-isomaltosyl-transferring enzyme from Bacillus globisporus C11 (FERM BP-7144), contains the … (protein, listed as Bacillus globisporus)
chain: IDGVYHAPYGIDDLYEIQATERSPRDPVAGDTVYIKITTWPIESGQTAWVTWTKNGVNQAAVGAAFKYNSGNNTYWEANLGTFAKGDVISYTVHGNKDGANEKVIGPFTFTVTGWESVSSISSITDNTNRVVLNAVPNTGTLKPKINLSFTADDVLRVQVSPTGTGTLSSGLSNYTVSDTASTTWLTTSKLKVKVDKNPFKLSVYKPDGTTLIARQYDSTTNRNIAWLTNGSTIIDKVEDHFYSPASEEFFGFGEHYNNFRKRGNDVDTYVFNQYKNQNDRTYMAIPFMLNSSGYGIFVNSTYYSKFRLATERTDMFSFTADTGGSAASMLDYYFIYGNDLKNVVSNYANITGKPTALPKWAFGLWMSANEWDRQTKVNTAINNANSNNIPATAVVLEQWSDENTFYIFNDATYTPKTGSAAHAYTDFTFPTSGRWTDPKAMADNVHNNGMKLVLWQVPIQKWTSTPYTQKDNDEAYMTAQNYAVGNGSGGQYRIPSGQWFENSLLLDFTNTAAKNWWMSKRAYLFDGVGIDGFKTDGGEMVWGRSNTFSNGKKGNEMRNQYPNEYVKAYNEYARSKKADAVSFSRSGTQGAQANQIFWSGDQESTFGAFQQAVNAGLTASMSGVPYWSWDMAGFTGTYPTAELYKRATEMAAFAPVMQFHSESNGSSGINEERSPWNAQARTGDNTIISHFAKYTNTRMNLLPYIYSEAKMASDTGVPMMRAMALEYPKDTNTYGLTQQYMFGGNLLIAPVMNQGETNKSIYLPQGDWIDFWFGAQRPGGRTISYTAGIDDLPVFVKFGSILPMNLNAQYQVGGTIGNSLTSYTNLAFRIYPLGTTTYDWNDDIGGSVKTITSTEQYGLNKETVTVPAINSTKTLQVFTTKPSSVTVGGSVMTEYSTLTALTGASTGWYYDTVQKFTYVKLGSSASAQSVVLNGVNKVEYEAEFGVQSGVSTNTNHAGYTGTGFVDGFETLGDNVAFDVSVKAAGTYTMKVRYSSGAGNGSRAIYVNNTKVTDLALPQTTSWDTWGTATFSVSLSTGLNTVKVSYDGTSSLGINFDNIAIVEQ
For B1, the optimum temperature [1] was “about 50 °C” and the thermal stability [2] was “up to 40 °C”.
